Measured values as given in patent publication US20180037645A1.
Where two headings read alike, the source gives them in different places.

Columns and labels:
[1] = target: IL-23 alanine shave mutant M7 (human) (UniProt P29460); experiment: cell-based or functional assay
[2] = target: IL-23 alanine shave mutant M9 (human) (UniProt P29460); experiment: cell-based or functional assay
[3] = target: wild-type IL-23 (His-tagged p19 / non-tagged p40) (human) (UniProt P29460); experiment: cell-based or functional assay
Chain of wild-type IL-23 (His-tagged p19 / non-tagged p40) (human) (chain, as listed by the source limits assumed, chain 1 of 2): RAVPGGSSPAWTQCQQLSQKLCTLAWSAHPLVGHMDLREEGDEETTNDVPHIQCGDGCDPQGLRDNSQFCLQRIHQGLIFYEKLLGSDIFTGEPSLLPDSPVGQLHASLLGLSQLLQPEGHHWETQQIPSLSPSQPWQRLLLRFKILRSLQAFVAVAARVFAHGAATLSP
Chain of wild-type IL-23 (His-tagged p19 / non-tagged p40) (human) (P29460 23-328 limits assumed, chain 2 of 2): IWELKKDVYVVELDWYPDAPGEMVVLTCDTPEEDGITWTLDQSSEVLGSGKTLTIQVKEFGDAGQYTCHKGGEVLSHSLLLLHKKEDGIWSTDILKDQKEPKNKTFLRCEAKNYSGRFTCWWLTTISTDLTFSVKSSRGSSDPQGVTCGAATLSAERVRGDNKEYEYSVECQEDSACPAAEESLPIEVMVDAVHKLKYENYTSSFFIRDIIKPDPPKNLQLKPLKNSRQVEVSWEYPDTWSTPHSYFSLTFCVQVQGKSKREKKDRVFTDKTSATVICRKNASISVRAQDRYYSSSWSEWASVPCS

[4] = target: IL-23 alanine shave mutant M10 (human) (UniProt P29460); experiment: cell-based or functional assay
Chain of IL-23 alanine shave mutant M10 (human) (chain, as listed by the source mutant limits assumed, form in doubt, chain 1 of 2): as the sequence (chain, as listed by the source limits assumed, chain 1 of 2) above, with H34A, M35A, D36A, F144A counted along it
Chain of IL-23 alanine shave mutant M10 (human) (P29460 23-328 limits assumed, stated change not applied, form in doubt, chain 2 of 2): as the sequence (P29460 23-328 limits assumed, chain 2 of 2) above

[5] = target: IL-23 M54A (human) (UniProt P29460); experiment: cell-based or functional assay
Chain of IL-23 M54A (human) (chain, as listed by the source M54A M54A, chain 1 of 2): as the sequence (chain, as listed by the source limits assumed, chain 1 of 2) above, with M35A counted along it
Chain of IL-23 M54A (human) (P29460 23-328, chain 2 of 2): as the sequence (P29460 23-328 limits assumed, chain 2 of 2) above

[6] = target: wild-type IL-23 (His-tagged p19 / non-tagged p40) (human) (UniProt P29460); experiment: cell-based or functional assay; remark: listed apart in the source
[7] = target: IL-23 H53A (human) (UniProt P29460); experiment: cell-based or functional assay
Chain of IL-23 H53A (human) (chain, as listed by the source H53A H53A, chain 1 of 2): as the sequence (chain, as listed by the source limits assumed, chain 1 of 2) above, with H34A counted along it
Chain of IL-23 H53A (human) (P29460 23-328, chain 2 of 2): as the sequence (P29460 23-328 limits assumed, chain 2 of 2) above

[8] = target: IL-23 E112A (human) (UniProt P29460); experiment: cell-based or functional assay
Chain of IL-23 E112A (human) (chain, as listed by the source E112A E112A, chain 1 of 2): as the sequence (chain, as listed by the source limits assumed, chain 1 of 2) above, with E93A counted along it
Chain of IL-23 E112A (human) (P29460 23-328, chain 2 of 2): as the sequence (P29460 23-328 limits assumed, chain 2 of 2) above

[9] = target: IL-23 L116A (human) (UniProt P29460); experiment: cell-based or functional assay
Chain of IL-23 L116A (human) (chain, as listed by the source L116A L116A, chain 1 of 2): as the sequence (chain, as listed by the source limits assumed, chain 1 of 2) above, with L97A counted along it
Chain of IL-23 L116A (human) (P29460 23-328, chain 2 of 2): as the sequence (P29460 23-328 limits assumed, chain 2 of 2) above

[10] = target: IL-23 D55A (human) (UniProt P29460); experiment: cell-based or functional assay
Chain of IL-23 D55A (human) (chain, as listed by the source D55A D55A, chain 1 of 2): as the sequence (chain, as listed by the source limits assumed, chain 1 of 2) above, with D36A counted along it
Chain of IL-23 D55A (human) (P29460 23-328, chain 2 of 2): as the sequence (P29460 23-328 limits assumed, chain 2 of 2) above

[11] = target: IL-23 D118A (human) (UniProt P29460); experiment: cell-based or functional assay
Chain of IL-23 D118A (human) (chain, as listed by the source D118A D118A, chain 1 of 2): as the sequence (chain, as listed by the source limits assumed, chain 1 of 2) above, with D99A counted along it
Chain of IL-23 D118A (human) (P29460 23-328, chain 2 of 2): as the sequence (P29460 23-328 limits assumed, chain 2 of 2) above

[12] = target: IL-23 alanine shave mutant M5 (human) (UniProt P29460); experiment: cell-based or functional assay
Chain of IL-23 alanine shave mutant M5 (human) (chain, as listed by the source mutant limits assumed, form in doubt, chain 1 of 2): as the sequence (chain, as listed by the source limits assumed, chain 1 of 2) above, with H34A, M35A, E93A, L97A, D99A counted along it
Chain of IL-23 alanine shave mutant M5 (human) (P29460 23-328 limits assumed, stated change not applied, form in doubt, chain 2 of 2): as the sequence (P29460 23-328 limits assumed, chain 2 of 2) above

[13] = target: IL-23 alanine shave mutant M7 (human) (UniProt P29460); experiment: SPR (Biacore T100), antibody captured by protein A
[14] = target: IL-23 M54A (human) (UniProt P29460); experiment: SPR (Biacore T100), antibody captured by protein A
[15] = target: IL-23 alanine shave mutant M9 (human) (UniProt P29460); experiment: SPR (Biacore T100), antibody captured by protein A
[16] = target: IL-23 H53A (human) (UniProt P29460); experiment: SPR (Biacore T100), antibody captured by protein A
[17] = target: IL-23 alanine shave mutant M5 (human) (UniProt P29460); experiment: SPR (Biacore T100), antibody captured by protein A
[18] = target: IL-23 E112A (human) (UniProt P29460); experiment: SPR (Biacore T100), antibody captured by protein A
[19] = target: IL-23 alanine shave mutant M10 (human) (UniProt P29460); experiment: SPR (Biacore T100), antibody captured by protein A
[20] = target: IL-23 L116A (human) (UniProt P29460); experiment: SPR (Biacore T100), antibody captured by protein A
[21] = target: IL-23 D55A (human) (UniProt P29460); experiment: SPR (Biacore T100), antibody captured by protein A
[22] = target: IL-23 D118A (human) (UniProt P29460); experiment: SPR (Biacore T100), antibody captured by protein A

Chain of IL-23 alanine shave mutant M9 (human) (chain, as listed by the source mutant limits assumed, form in doubt, chain 1 of 2): as the sequence (chain, as listed by the source limits assumed, chain 1 of 2) above, with L97A, D99A, Q104A counted along it
Chain of IL-23 alanine shave mutant M9 (human) (P29460 23-328 limits assumed, stated change not applied, form in doubt, chain 2 of 2): as the sequence (P29460 23-328 limits assumed, chain 2 of 2) above
Chain of IL-23 alanine shave mutant M7 (human) (chain, as listed by the source mutant limits assumed, form in doubt, chain 1 of 2): as the sequence (chain, as listed by the source limits assumed, chain 1 of 2) above, with W123A, E124A, T125A, Q126A, Q127A counted along it
Chain of IL-23 alanine shave mutant M7 (human) (P29460 23-328 limits assumed, stated change not applied, form in doubt, chain 2 of 2): as the sequence (P29460 23-328 limits assumed, chain 2 of 2) above

| IC50, pSTAT3 in BaF3/huIL-23Rα/huIL-12Rβ1 transfectants [1] | IC50, pSTAT3 in BaF3/huIL-23Rα/huIL-12Rβ1 transfectants [2] | IC50, pSTAT3 in BaF3/huIL-23Rα/huIL-12Rβ1 transfectants [3] | IC50, pSTAT3 in BaF3/huIL-23Rα/huIL-12Rβ1 transfectants [4] | IC50, pSTAT3 in BaF3/huIL-23Rα/huIL-12Rβ1 transfectants [5] | IC50, pSTAT3 in BaF3/huIL-23Rα/huIL-12Rβ1 transfectants [6] | IC50, pSTAT3 in BaF3/huIL-23Rα/huIL-12Rβ1 transfectants [7] | IC50, pSTAT3 in BaF3/huIL-23Rα/huIL-12Rβ1 transfectants [8] | IC50, pSTAT3 in BaF3/huIL-23Rα/huIL-12Rβ1 transfectants [9] | IC50, pSTAT3 in BaF3/huIL-23Rα/huIL-12Rβ1 transfectants [10] | IC50, pSTAT3 in BaF3/huIL-23Rα/huIL-12Rβ1 transfectants [11] | Substance | also measured |
| --- | --- | --- | --- | --- | --- | --- | --- | --- | --- | --- | --- | --- |
| 310 pM | 260 pM | 380 pM | 350 pM | 0.27 nM | 0.18 nM | 0.19 nM | > 3 nM | 0.24 nM | 0.18 nM | 0.22 nM | Merck's IL-23 p19 mAb (7G10) (antibody) | – |
| 59 pM | 67 pM | 79 pM | 71 pM | 81 pM | 67 pM | 78 pM | 33 pM | 54 pM | 77 pM | 52 pM | STELARA® (ustekinumab, IL-12/IL-23 p40 mAb) (antibody) | IC50, pSTAT3 in BaF3/huIL-23Rα/huIL-12Rβ1 transfectants [12]: 62 pM; ΔΔG [13]: 0.1 kcal/mol; ΔΔG [14]: 0.3 kcal/mol; ΔΔG [15]: 0.1 kcal/mol; ΔΔG [16]: 0.3 kcal/mol; ΔΔG [17]: 0.1 kcal/mol; ΔΔG [18]: 0.3 kcal/mol; ΔΔG [19]: 0.3 kcal/mol; ΔΔG [20]: 0.5 kcal/mol; ΔΔG [21]: 0.5 kcal/mol; ΔΔG [22]: -0.3 kcal/mol |
